In FireProtDB (doi:10.1006/jmbi.1998.1906):

B1: Lysozyme C, P61626 (parent)
chain: MKALIVLGLVLLSVTVQGKVFERCELARTLKRLGMDGYRGISLANWMCLAKWESGYNTRATNYNAGDRSTDYGIFQINSRYWCNDGKTPGAVNACHLSCSALLQDNIADAVACAKRVVRDPQGIRAWVAWRNRCQNRDVRQYVQGCGV

Variants of: B1
Conditions: Homo sapiens; pH 2.55; Thermal; DSC; glycine 0.05 M; reversible: yes; structure 1LZ1; whole UniProt chain shown

| Variant | Tm [°C] | unfolding enthalpy (calorimetric) [kcal/mol] | unfolding enthalpy (van 't Hoff) [kcal/mol] |
| --- | --- | --- | --- |
| V128A | 46.8 | 76.8 | 78 |

Same assay, conditions: Homo sapiens; pH 2.7; 49.2 °C; Thermal; DSC; glycine 0.05 M; reversible: yes; structure 1LZ1; whole UniProt chain shown

| Variant | ddG of mutation (higher = less stable) [kcal/mol] | heat capacity change of unfolding [kcal/mol/K] |
| --- | --- | --- |
| V128A | -0.07 | 1.51 |
| I77V | 0.93 | 1.67 |
| V143A | 1.6 | 1.56 |
| I74V | 1.34 | 1.29 |
| V148A | 1.12 | 1.87 |
| I107V | 0.35 | 1.84 |
| V20A | 1.51 | 1.44 |

Same assay, conditions: Homo sapiens; pH 2.7; Thermal; DSC; glycine 0.05 M; reversible: yes; structure 1LZ1; whole UniProt chain shown

| Variant | Tm [°C] | change of melting temperature, mutant - wild type (higher = more stable) [°C] | heat capacity change of unfolding [kcal/mol/K] | unfolding enthalpy (calorimetric) [kcal/mol] |
| --- | --- | --- | --- | --- |
| V128A | 49.5 | 0.3 | 1.51 | 80.9 |
| I77V | 44.8 | -4.4 | 1.67 | 71.3 |
| V143A | 42.2 | -7 | 1.56 | 78 |
| I74V | 42.9 | -6.3 | 1.29 | 71.8 |
| V148A | 44.4 | -4.8 | 1.87 | 78.2 |
| I107V | 46.5 | -2.7 | 1.84 | 78.5 |
| V20A | 41.3 | -7.9 | 1.44 | 65.5 |

Same assay, conditions: Homo sapiens; pH 2.87; Thermal; DSC; glycine 0.05 M; reversible: yes; structure 1LZ1; whole UniProt chain shown

| Variant | Tm [°C] | unfolding enthalpy (calorimetric) [kcal/mol] | unfolding enthalpy (van 't Hoff) [kcal/mol] |
| --- | --- | --- | --- |
| V128A | 52.5 | 85.9 | 87.6 |
| V143A | 45.9 | 72.2 | 76.3 |

Same assay, conditions: Homo sapiens; pH 3; Thermal; DSC; glycine 0.05 M; reversible: yes; structure 1LZ1; whole UniProt chain shown

| Variant | Tm [°C] | unfolding enthalpy (calorimetric) [kcal/mol] | unfolding enthalpy (van 't Hoff) [kcal/mol] |
| --- | --- | --- | --- |
| V128A | 55 | 89 | 93.1 |
| I77V | 50.3 | 74.2 | 76.1 |
| I74V | 48.2 | 69.4 | 73 |

Same assay, conditions: Homo sapiens; pH 3.13; Thermal; DSC; glycine 0.05 M; reversible: yes; structure 1LZ1; whole UniProt chain shown

| Variant | Tm [°C] | unfolding enthalpy (calorimetric) [kcal/mol] | unfolding enthalpy (van 't Hoff) [kcal/mol] |
| --- | --- | --- | --- |
| V128A | 57.2 | 93.3 | 93.3 |

Same assay, conditions: Homo sapiens; pH 2.68; Thermal; DSC; glycine 0.05 M; reversible: yes; structure 1LZ1; whole UniProt chain shown

| Variant | Tm [°C] | unfolding enthalpy (calorimetric) [kcal/mol] | unfolding enthalpy (van 't Hoff) [kcal/mol] |
| --- | --- | --- | --- |
| I77V | 44.3 | 62.9 | 67 |

Same assay, conditions: Homo sapiens; pH 2.81; Thermal; DSC; glycine 0.05 M; reversible: yes; structure 1LZ1; whole UniProt chain shown

| Variant | Tm [°C] | change of melting temperature, mutant - wild type (higher = more stable) [°C] | unfolding enthalpy (calorimetric) [kcal/mol] | unfolding enthalpy (van 't Hoff) [kcal/mol] |
| --- | --- | --- | --- | --- |
| I77V | 46.9 | -5.1 | 67.5 | 71.1 |

Same assay, conditions: Homo sapiens; pH 3.1; Thermal; DSC; glycine 0.05 M; reversible: yes; structure 1LZ1; whole UniProt chain shown

| Variant | Tm [°C] | unfolding enthalpy (calorimetric) [kcal/mol] | unfolding enthalpy (van 't Hoff) [kcal/mol] |
| --- | --- | --- | --- |
| I77V | 52 | 75.4 | 78.7 |
| I74V | 50.5 | 74.4 | 78.2 |
| I107V | 53.8 | 87.3 | 88.3 |
| V20A | 48.3 | 65.1 | 70.6 |

Same assay, conditions: Homo sapiens; pH 2.72; Thermal; DSC; glycine 0.05 M; reversible: yes; structure 1LZ1; whole UniProt chain shown

| Variant | Tm [°C] | unfolding enthalpy (calorimetric) [kcal/mol] | unfolding enthalpy (van 't Hoff) [kcal/mol] |
| --- | --- | --- | --- |
| V143A | 42.8 | 67.2 | 70.6 |

Same assay, conditions: Homo sapiens; pH 3.02; Thermal; DSC; glycine 0.05 M; reversible: yes; structure 1LZ1; whole UniProt chain shown

| Variant | Tm [°C] | unfolding enthalpy (calorimetric) [kcal/mol] | unfolding enthalpy (van 't Hoff) [kcal/mol] |
| --- | --- | --- | --- |
| V143A | 47.9 | 76.3 | 78 |
| V20A | 47.3 | 62 | 67.5 |

Same assay, conditions: Homo sapiens; pH 3.17; Thermal; DSC; glycine 0.05 M; reversible: yes; structure 1LZ1; whole UniProt chain shown

| Variant | Tm [°C] | unfolding enthalpy (calorimetric) [kcal/mol] | unfolding enthalpy (van 't Hoff) [kcal/mol] |
| --- | --- | --- | --- |
| V143A | 50.8 | 81.1 | 82.8 |

Same assay, conditions: Homo sapiens; pH 2.8; Thermal; DSC; glycine 0.05 M; reversible: yes; structure 1LZ1; whole UniProt chain shown

| Variant | Tm [°C] | unfolding enthalpy (calorimetric) [kcal/mol] | unfolding enthalpy (van 't Hoff) [kcal/mol] |
| --- | --- | --- | --- |
| I74V | 45.3 | 66.7 | 71.1 |

Same assay, conditions: Homo sapiens; pH 2.5; Thermal; DSC; glycine 0.05 M; reversible: yes; structure 1LZ1; whole UniProt chain shown

| Variant | Tm [°C] | unfolding enthalpy (calorimetric) [kcal/mol] | unfolding enthalpy (van 't Hoff) [kcal/mol] |
| --- | --- | --- | --- |
| V148A | 40.4 | 61 | 67.7 |

Same assay, conditions: Homo sapiens; pH 2.69; Thermal; DSC; glycine 0.05 M; reversible: yes; structure 1LZ1; whole UniProt chain shown

| Variant | Tm [°C] | unfolding enthalpy (calorimetric) [kcal/mol] | unfolding enthalpy (van 't Hoff) [kcal/mol] |
| --- | --- | --- | --- |
| V148A | 43.8 | 69.9 | 73 |

Same assay, conditions: Homo sapiens; pH 2.82; Thermal; DSC; glycine 0.05 M; reversible: yes; structure 1LZ1; whole UniProt chain shown

| Variant | Tm [°C] | unfolding enthalpy (calorimetric) [kcal/mol] | unfolding enthalpy (van 't Hoff) [kcal/mol] |
| --- | --- | --- | --- |
| V148A | 47 | 73 | 79.2 |

Same assay, conditions: Homo sapiens; pH 2.97; Thermal; DSC; glycine 0.05 M; reversible: yes; structure 1LZ1; whole UniProt chain shown

| Variant | Tm [°C] | unfolding enthalpy (calorimetric) [kcal/mol] | unfolding enthalpy (van 't Hoff) [kcal/mol] |
| --- | --- | --- | --- |
| V148A | 49.9 | 80.1 | 86.1 |

Same assay, conditions: Homo sapiens; pH 3.09; Thermal; DSC; glycine 0.05 M; reversible: yes; structure 1LZ1; whole UniProt chain shown

| Variant | Tm [°C] | unfolding enthalpy (calorimetric) [kcal/mol] | unfolding enthalpy (van 't Hoff) [kcal/mol] |
| --- | --- | --- | --- |
| V148A | 52.5 | 84.2 | 90.2 |

Same assay, conditions: Homo sapiens; pH 2.49; Thermal; DSC; glycine 0.05 M; reversible: yes; structure 1LZ1; whole UniProt chain shown

| Variant | Tm [°C] | unfolding enthalpy (calorimetric) [kcal/mol] | unfolding enthalpy (van 't Hoff) [kcal/mol] |
| --- | --- | --- | --- |
| I107V | 42.5 | 66 | 72 |

Same assay, conditions: Homo sapiens; pH 2.66; Thermal; DSC; glycine 0.05 M; reversible: yes; structure 1LZ1; whole UniProt chain shown

| Variant | Tm [°C] | unfolding enthalpy (calorimetric) [kcal/mol] | unfolding enthalpy (van 't Hoff) [kcal/mol] |
| --- | --- | --- | --- |
| I107V | 45.5 | 71.8 | 76.6 |

Same assay, conditions: Homo sapiens; pH 2.78; Thermal; DSC; glycine 0.05 M; reversible: yes; structure 1LZ1; whole UniProt chain shown

| Variant | Tm [°C] | unfolding enthalpy (calorimetric) [kcal/mol] | unfolding enthalpy (van 't Hoff) [kcal/mol] |
| --- | --- | --- | --- |
| I107V | 48.4 | 77.3 | 82.3 |

Same assay, conditions: Homo sapiens; pH 2.71; Thermal; DSC; glycine 0.05 M; reversible: yes; structure 1LZ1; whole UniProt chain shown

| Variant | Tm [°C] | unfolding enthalpy (calorimetric) [kcal/mol] | unfolding enthalpy (van 't Hoff) [kcal/mol] |
| --- | --- | --- | --- |
| V20A | 41.4 | 54.5 | 60.3 |
